Laboratory results reported in patent publication US20120082622A1 (Janssen / Centocor, published 2012).

Target: T1, CCR4 endogenously expressed on CCRF-CEM cells (UniProt P51679 1-360, limits assumed)
T1 sequence (looked up): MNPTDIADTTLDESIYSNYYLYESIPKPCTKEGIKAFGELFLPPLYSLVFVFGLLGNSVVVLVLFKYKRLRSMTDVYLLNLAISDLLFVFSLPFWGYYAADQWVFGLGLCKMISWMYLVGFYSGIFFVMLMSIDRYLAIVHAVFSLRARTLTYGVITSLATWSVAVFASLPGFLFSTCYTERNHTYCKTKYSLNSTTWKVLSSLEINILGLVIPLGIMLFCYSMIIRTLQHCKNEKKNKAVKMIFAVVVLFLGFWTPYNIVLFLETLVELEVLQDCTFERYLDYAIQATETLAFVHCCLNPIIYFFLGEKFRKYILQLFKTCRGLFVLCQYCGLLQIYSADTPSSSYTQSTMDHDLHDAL
Test: cell-based or functional assay

calcium flux of CCRF-CEM cells (Fluo-8 NW dye fluorescence), EC50: 0.665 ng/mL
B1: mature Macaca fascicularis CCL17 (cynoCCL17), refolded from E. coli inclusion bodies (ligand)
chain: ARGTNVGRECCLKYFKGAIPLRKLKTWYQTSEDCSRDAIVFVTVQNKAICSDPNDKKVKKALKYLQSL
